Starred links: 1 amine or outer side, 2 acyl side, 3 side chain; linkers in the order of their positions; H or OH if unused. Positions of bridges follow the written chain, without caps; N, C: chain ends. Groups on a side chain read outwards from the residue. No end group written: not given here. *: point of attachment. C20 diacid = O=C(O)CCCCCCCCCCCCCCCCCCC(=O)*; 19‑carboxyheptadecanoyl = not defined here; C18 diacid = O=C(O)CCCCCCCCCCCCCCCCC(=O)*; γGlu = O=C(O)[C@H](CCC(=O)[*:2])N[*:1]; AEEA = NCCOCCOCC(=O)O

The chains are these.
T1: human amylin 3(a) receptor (human calcitonin receptor + RAMP-3) (human, UniProt P30988 25-474; O60896 24-148)
T1 sequence (looked up) 1: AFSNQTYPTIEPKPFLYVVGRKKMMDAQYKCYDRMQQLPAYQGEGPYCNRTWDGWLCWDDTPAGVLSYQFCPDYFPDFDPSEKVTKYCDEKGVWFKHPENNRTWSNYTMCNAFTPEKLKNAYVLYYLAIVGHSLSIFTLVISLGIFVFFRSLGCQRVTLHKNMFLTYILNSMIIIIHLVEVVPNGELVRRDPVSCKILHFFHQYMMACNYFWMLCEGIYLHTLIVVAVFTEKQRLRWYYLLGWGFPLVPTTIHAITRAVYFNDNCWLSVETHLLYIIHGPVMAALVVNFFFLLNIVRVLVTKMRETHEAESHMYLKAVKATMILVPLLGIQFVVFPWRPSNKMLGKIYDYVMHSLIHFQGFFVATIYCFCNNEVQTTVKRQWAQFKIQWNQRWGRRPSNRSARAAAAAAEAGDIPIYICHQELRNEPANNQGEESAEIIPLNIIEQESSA
T1 sequence (looked up) 2: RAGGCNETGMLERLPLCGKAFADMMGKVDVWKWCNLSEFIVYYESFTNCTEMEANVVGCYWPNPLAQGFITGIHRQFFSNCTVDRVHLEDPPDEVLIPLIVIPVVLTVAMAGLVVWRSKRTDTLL

T2: human calcitonin (a) receptor (human, UniProt P30988 25-474)
T2 sequence (looked up): T1 sequence (looked up) 1

B1: N-alpha-[2-(2-{2-[2-(2-{2-[(S)-4-Carboxy-4-(19-carboxyheptadecanoylamino)butyrylamino]ethoxy}ethoxy)acetylamino]ethoxy}ethoxy)acetyl]-[His1,Glu14,His17,Ser21,Hi … (peptide)
peptide: {19‑carboxyheptadecanoyl-γGlu-AEEA-AEEA}-HCNTATCATQRLAEFLHHSSSNFGPILPPTNVGSHTY-NH2
modifications: disulfide 2-7; reading uncertain; also: printed as N-alpha-[2-(2-{2-[2-(2-{2-[(S)-4-Carboxy-4-(19-carboxyheptadecanoylamino)butyrylamino]ethoxy}ethoxy)acetylamino]ethoxy}ethoxy)acetyl]-[His1,Glu14,His17,Ser21,His35]-pramlintide
B2: N-alpha-[(S)-4-Carboxy-4-(19-carboxynonadecanoylamino)butyryl]-Glu-Arg-[Glu1,Pro37]-pramlintide (peptide)
peptide: {C20 diacid-γGlu}-ERECNTATCATQRLANFLVHSSNNFGPILPPTNVGSNTP-NH2
modifications: disulfide 4-9
SMILES: CC[C@H](C)[C@H](NC(=O)[C@@H]1CCCN1C(=O)CNC(=O)[C@H](Cc1ccccc1)NC(=O)[C@H](CC(N)=O)NC(=O)[C@H](CC(N)=O)NC(=O)[C@H](CO)NC(=O)[C@H](CO)NC(=O)[C@H](Cc1c[nH]cn1)NC(=O)[C@@H](NC(=O)[C@H](CC(C)C)NC(=O)[C@H](Cc1ccccc1)NC(=O)[C@H](CC(N)=O)NC(=O)[C@H](C)NC(=O)[C@H](CC(C)C)NC(=O)[C@H](CCCNC(=N)N)NC(=O)[C@H](CCC(N)=O)NC(=O)[C@@H](NC(=O)[C@H](C)NC(=O)[C@@H]1CSSC[C@H](NC(=O)[C@H](CCC(=O)O)NC(=O)[C@H](CCCNC(=N)N)NC(=O)[C@H](CCC(=O)O)NC(=O)CC[C@H](NC(=O)CCCCCCCCCCCCCCCCCCC(=O)O)C(=O)O)C(=O)N[C@@H](CC(N)=O)C(=O)N[C@@H]([C@@H](C)O)C(=O)N[C@@H](C)C(=O)N[C@@H]([C@@H](C)O)C(=O)N1)[C@@H](C)O)C(C)C)C(=O)N[C@@H](CC(C)C)C(=O)N1CCC[C@H]1C(=O)N1CCC[C@H]1C(=O)N[C@H](C(=O)N[C@@H](CC(N)=O)C(=O)N[C@H](C(=O)NCC(=O)N[C@@H](CO)C(=O)N[C@@H](CC(N)=O)C(=O)N[C@H](C(=O)N1CCC[C@H]1C(N)=O)[C@@H](C)O)C(C)C)[C@@H](C)O
B3: N-epsilon21-[2-(2-{2-[2-(2-{2-[(S)-4-Carboxy-4-(19-carboxyheptadecanoylamino)butyrylamino]ethoxy}ethoxy)acetylamino]ethoxy}ethoxy)acetyl]-[Glu14,Lys21,Ser29,His … (peptide)
peptide: KCNTATCATQRLAEFLVHSSK([AEEA-AEEA-γGlu-19‑carboxyheptadecanoyl])NFGPILPSTNVGSHTY-NH2
modifications: disulfide 2-7
B4: N-epsilon25-[2-(2-{2-[2-(2-{2-[(S)-4-Carboxy-4-(17-carboxyheptadecanoylamino)butyrylamino]ethoxy}ethoxy)acetylamino]ethoxy}ethoxy)acetyl]-[Glu14,Lys25]-pramlint … (peptide)
peptide: KCNTATCATQRLAEFLVHSSNNFGK([AEEA-AEEA-γGlu-C18 diacid])ILPPTNVGSNTY-NH2
modifications: disulfide 2-7; N-terminus assumed
SMILES: CC[C@H](C)[C@H](NC(=O)[C@H](CCCCNC(=O)COCCOCCNC(=O)COCCOCCNC(=O)CC[C@H](NC(=O)CCCCCCCCCCCCCCCCC(=O)O)C(=O)O)NC(=O)CNC(=O)[C@H](Cc1ccccc1)NC(=O)[C@H](CC(N)=O)NC(=O)[C@H](CC(N)=O)NC(=O)[C@H](CO)NC(=O)[C@H](CO)NC(=O)[C@H](Cc1c[nH]cn1)NC(=O)[C@@H](NC(=O)[C@H](CC(C)C)NC(=O)[C@H](Cc1ccccc1)NC(=O)[C@H](CCC(=O)O)NC(=O)[C@H](C)NC(=O)[C@H](CC(C)C)NC(=O)[C@H](CCCNC(=N)N)NC(=O)[C@H](CCC(N)=O)NC(=O)[C@@H](NC(=O)[C@H](C)NC(=O)[C@@H]1CSSC[C@H](NC(=O)[C@@H](N)CCCCN)C(=O)N[C@@H](CC(N)=O)C(=O)N[C@@H]([C@@H](C)O)C(=O)N[C@@H](C)C(=O)N[C@@H]([C@@H](C)O)C(=O)N1)[C@@H](C)O)C(C)C)C(=O)N[C@@H](CC(C)C)C(=O)N1CCC[C@H]1C(=O)N1CCC[C@H]1C(=O)N[C@H](C(=O)N[C@@H](CC(N)=O)C(=O)N[C@H](C(=O)NCC(=O)N[C@@H](CO)C(=O)N[C@@H](CC(N)=O)C(=O)N[C@H](C(=O)N[C@@H](Cc1ccc(O)cc1)C(N)=O)[C@@H](C)O)C(C)C)[C@@H](C)O
B5: N-alpha-[(S)-4-Carboxy-4-(19-carboxynonadecanoylamino)butyryl]-Glu-[Glu14,His17,Gln21,His35]-pramlintide (peptide)
peptide: {C20 diacid-γGlu}-EKCNTATCATQRLAEFLHHSSQNFGPILPPTNVGSHTY-NH2
modifications: disulfide 3-8; not fully specified; printed as N-alpha-[(S)-4-Carboxy-4-(19-carboxynonadecanoylamino)butyryl]-Glu-[Glu14,His17,Gln21,His35]-pramlintide
B6: N-alpha-[(S)-4-Carboxy-4-(19-carboxynonadecanoylamino)butyryl]-[Glu14,His17,Asp21,His35]-pramlintide (peptide)
peptide: {C20 diacid-γGlu}-KCNTATCATQRLAEFLHHSSDNFGPILPPTNVGSHTY-NH2
modifications: disulfide 2-7
SMILES: CC[C@H](C)[C@H](NC(=O)[C@@H]1CCCN1C(=O)CNC(=O)[C@H](Cc1ccccc1)NC(=O)[C@H](CC(N)=O)NC(=O)[C@H](CC(=O)O)NC(=O)[C@H](CO)NC(=O)[C@H](CO)NC(=O)[C@H](Cc1c[nH]cn1)NC(=O)[C@H](Cc1c[nH]cn1)NC(=O)[C@H](CC(C)C)NC(=O)[C@H](Cc1ccccc1)NC(=O)[C@H](CCC(=O)O)NC(=O)[C@H](C)NC(=O)[C@H](CC(C)C)NC(=O)[C@H](CCCNC(=N)N)NC(=O)[C@H](CCC(N)=O)NC(=O)[C@@H](NC(=O)[C@H](C)NC(=O)[C@@H]1CSSC[C@H](NC(=O)[C@H](CCCCN)NC(=O)CC[C@H](NC(=O)CCCCCCCCCCCCCCCCCCC(=O)O)C(=O)O)C(=O)N[C@@H](CC(N)=O)C(=O)N[C@@H]([C@@H](C)O)C(=O)N[C@@H](C)C(=O)N[C@@H]([C@@H](C)O)C(=O)N1)[C@@H](C)O)C(=O)N[C@@H](CC(C)C)C(=O)N1CCC[C@H]1C(=O)N1CCC[C@H]1C(=O)N[C@H](C(=O)N[C@@H](CC(N)=O)C(=O)N[C@H](C(=O)NCC(=O)N[C@@H](CO)C(=O)N[C@@H](Cc1c[nH]cn1)C(=O)N[C@H](C(=O)N[C@@H](Cc1ccc(O)cc1)C(N)=O)[C@@H](C)O)C(C)C)[C@@H](C)O
B7: N-alpha-[(S)-4-Carboxy-4-(19-carboxynonadecanoylamino)butyryl]-Glu-Arg-[Glu1,Glu14,Arg17,Pro37]-pramlintide (peptide)
peptide: {C20 diacid-γGlu}-ERECNTATCATQRLAEFLRHSSNNFGPILPPTNVGSNTP-NH2
modifications: disulfide 4-9
SMILES: CC[C@H](C)[C@H](NC(=O)[C@@H]1CCCN1C(=O)CNC(=O)[C@H](Cc1ccccc1)NC(=O)[C@H](CC(N)=O)NC(=O)[C@H](CC(N)=O)NC(=O)[C@H](CO)NC(=O)[C@H](CO)NC(=O)[C@H](Cc1c[nH]cn1)NC(=O)[C@H](CCCNC(=N)N)NC(=O)[C@H](CC(C)C)NC(=O)[C@H](Cc1ccccc1)NC(=O)[C@H](CCC(=O)O)NC(=O)[C@H](C)NC(=O)[C@H](CC(C)C)NC(=O)[C@H](CCCNC(=N)N)NC(=O)[C@H](CCC(N)=O)NC(=O)[C@@H](NC(=O)[C@H](C)NC(=O)[C@@H]1CSSC[C@H](NC(=O)[C@H](CCC(=O)O)NC(=O)[C@H](CCCNC(=N)N)NC(=O)[C@H](CCC(=O)O)NC(=O)CC[C@H](NC(=O)CCCCCCCCCCCCCCCCCCC(=O)O)C(=O)O)C(=O)N[C@@H](CC(N)=O)C(=O)N[C@@H]([C@@H](C)O)C(=O)N[C@@H](C)C(=O)N[C@@H]([C@@H](C)O)C(=O)N1)[C@@H](C)O)C(=O)N[C@@H](CC(C)C)C(=O)N1CCC[C@H]1C(=O)N1CCC[C@H]1C(=O)N[C@H](C(=O)N[C@@H](CC(N)=O)C(=O)N[C@H](C(=O)NCC(=O)N[C@@H](CO)C(=O)N[C@@H](CC(N)=O)C(=O)N[C@H](C(=O)N1CCC[C@H]1C(N)=O)[C@@H](C)O)C(C)C)[C@@H](C)O
B8: N-alpha-[(S)-4-Carboxy-4-(19-carboxynonadecanoylamino)butyryl]-Glu-Arg-[Glu1,Glu14,His17,Pro37]-pramlintide (peptide)
peptide: {C20 diacid-γGlu}-ERECNTATCATQRLAEFLHHSSNNFGPILPPTNVGSNTP-NH2
modifications: disulfide 4-9
SMILES: CC[C@H](C)[C@H](NC(=O)[C@@H]1CCCN1C(=O)CNC(=O)[C@H](Cc1ccccc1)NC(=O)[C@H](CC(N)=O)NC(=O)[C@H](CC(N)=O)NC(=O)[C@H](CO)NC(=O)[C@H](CO)NC(=O)[C@H](Cc1c[nH]cn1)NC(=O)[C@H](Cc1c[nH]cn1)NC(=O)[C@H](CC(C)C)NC(=O)[C@H](Cc1ccccc1)NC(=O)[C@H](CCC(=O)O)NC(=O)[C@H](C)NC(=O)[C@H](CC(C)C)NC(=O)[C@H](CCCNC(=N)N)NC(=O)[C@H](CCC(N)=O)NC(=O)[C@@H](NC(=O)[C@H](C)NC(=O)[C@@H]1CSSC[C@H](NC(=O)[C@H](CCC(=O)O)NC(=O)[C@H](CCCNC(=N)N)NC(=O)[C@H](CCC(=O)O)NC(=O)CC[C@H](NC(=O)CCCCCCCCCCCCCCCCCCC(=O)O)C(=O)O)C(=O)N[C@@H](CC(N)=O)C(=O)N[C@@H]([C@@H](C)O)C(=O)N[C@@H](C)C(=O)N[C@@H]([C@@H](C)O)C(=O)N1)[C@@H](C)O)C(=O)N[C@@H](CC(C)C)C(=O)N1CCC[C@H]1C(=O)N1CCC[C@H]1C(=O)N[C@H](C(=O)N[C@@H](CC(N)=O)C(=O)N[C@H](C(=O)NCC(=O)N[C@@H](CO)C(=O)N[C@@H](CC(N)=O)C(=O)N[C@H](C(=O)N1CCC[C@H]1C(N)=O)[C@@H](C)O)C(C)C)[C@@H](C)O

One test addresses T1, human amylin 3(a) receptor (human …). The test is described as follows: cell-based or functional assay.
As to B1, the “Amylin receptor human EC50” value is 0.938 nM.
As for B2, the “Amylin receptor human EC50” value stood at 0.063 nM.
Same read-out and setting: the result for B3 reads 1.09 nM.
For B4, the “Amylin receptor human EC50” value was 0.076 nM.
Turning to B5, the “Amylin receptor human EC50” value was 0.391 nM.
Still for that read-out and setting: as for B6, the figure is 0.291 nM.
With B7, the “Amylin receptor human EC50” value came out at 0.0895 nM.
On the same count and under the same terms, the result for B8 reads 0.136 nM.

The target in a further test is T2, human calcitonin (a) receptor. As to the kind of experiment: cell-based or functional assay.
Take B1: the “CTa receptor human EC50” value turned out to be 1.08 nM.
For the molecule B2, the “CTa receptor human EC50” value was 0.061 nM.
B3: the “CTa receptor human EC50” value came out at 0.48 nM.
For B4, the “CTa receptor human EC50” value is 0.101 nM.
Regarding B5, the “CTa receptor human EC50” value was 0.247 nM.
As for B6, the “CTa receptor human EC50” value was found to be 0.266 nM.
Take B7: the “CTa receptor human EC50” value stood at 0.367 nM.
With B8, the “CTa receptor human EC50” value worked out at 0.378 nM.

Values taken from patent US20130005646A1 (Novo Nordisk, published 2013).
